One block for each binder: values may come before it.
Biological target: BiP, murine sequence (hamster BiP mutated to the murine sequence) (murine, UniProt P20029 20-655)
Assay: SEC

Chain of BiP, murine sequence (hamster BiP mutated to the murine sequence) (P20029 20-655, change not shown): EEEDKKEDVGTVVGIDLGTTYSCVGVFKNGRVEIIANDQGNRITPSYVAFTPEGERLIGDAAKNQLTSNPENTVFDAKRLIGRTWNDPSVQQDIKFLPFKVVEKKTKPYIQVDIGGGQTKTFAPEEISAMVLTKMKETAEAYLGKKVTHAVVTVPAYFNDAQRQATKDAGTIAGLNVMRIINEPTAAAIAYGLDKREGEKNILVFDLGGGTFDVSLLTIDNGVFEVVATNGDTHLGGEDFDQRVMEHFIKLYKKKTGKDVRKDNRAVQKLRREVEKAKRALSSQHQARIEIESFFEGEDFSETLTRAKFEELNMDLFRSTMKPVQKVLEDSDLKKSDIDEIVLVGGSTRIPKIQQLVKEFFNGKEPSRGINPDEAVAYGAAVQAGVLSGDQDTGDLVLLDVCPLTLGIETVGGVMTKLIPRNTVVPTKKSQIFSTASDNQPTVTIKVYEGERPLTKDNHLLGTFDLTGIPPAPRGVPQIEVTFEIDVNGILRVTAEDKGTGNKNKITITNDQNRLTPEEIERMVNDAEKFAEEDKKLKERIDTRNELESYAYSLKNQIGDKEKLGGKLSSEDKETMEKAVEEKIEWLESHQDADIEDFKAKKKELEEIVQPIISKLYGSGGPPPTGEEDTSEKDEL

Kd: 12.6 ± 0.7 µM
koff: 8.33e-05 s⁻¹
kon: 4.33 M⁻¹ s⁻¹
B1: CH1 domain of the murine IgG1 heavy chain, oxidized (internal disulfide bridge formed) (domain or fragment)
chain: not shown
modifications: internal disulfide bridge formed (oxidized; Cys25-Cys80)

Kd: 4.2 ± 0.4 µM
koff: 7.83e-05 s⁻¹
kon: 6.83 M⁻¹ s⁻¹
B2: CH1 domain of the murine IgG1 heavy chain, reduced (domain or fragment)
chain: not shown
modifications: internal disulfide bridge not formed (reduced)
